# Data reported in paper PMC9478406, “AMPK-related protein kinase ARK5 regulates subcellular localization of RNA-binding protein hnRNP A1 during hypertonic stress” (The Journal of Biological Chemistry, 2022).
# T1: GST-tagged ARK5 wild type (AMPK-related protein kinase 5) (human, UniProt O60285 1-661)
# T1 construct: ARK5 (aka NUAK1), UniProt ID O60285; Printed both as GST-ARK5 and ARK5-GST, so the end of the tag is not clear; also called NUAK1; GST-ARK5; source: U2OS, transfected, in lysate; U2OS, transfected, purified (Pierce GST spin purification kit)
# T1 sequence (looked up): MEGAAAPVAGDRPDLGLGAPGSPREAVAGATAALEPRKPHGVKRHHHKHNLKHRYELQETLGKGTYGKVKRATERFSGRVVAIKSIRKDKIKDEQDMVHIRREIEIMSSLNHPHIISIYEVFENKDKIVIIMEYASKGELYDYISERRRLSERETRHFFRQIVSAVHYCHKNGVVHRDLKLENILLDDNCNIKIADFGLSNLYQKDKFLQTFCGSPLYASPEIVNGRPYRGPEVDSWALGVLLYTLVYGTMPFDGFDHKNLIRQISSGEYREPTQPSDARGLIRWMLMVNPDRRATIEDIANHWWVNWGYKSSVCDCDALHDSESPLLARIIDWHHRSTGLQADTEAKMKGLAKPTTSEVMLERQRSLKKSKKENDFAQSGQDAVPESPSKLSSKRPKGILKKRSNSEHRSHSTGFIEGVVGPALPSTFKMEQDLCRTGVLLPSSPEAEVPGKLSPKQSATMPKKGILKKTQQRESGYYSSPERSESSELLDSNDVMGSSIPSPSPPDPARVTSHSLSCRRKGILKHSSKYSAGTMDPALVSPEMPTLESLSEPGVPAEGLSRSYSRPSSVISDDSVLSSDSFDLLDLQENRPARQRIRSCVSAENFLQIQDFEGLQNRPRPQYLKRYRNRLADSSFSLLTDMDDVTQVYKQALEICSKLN
# Target: T1, GST-tagged ARK5 wild type (AMPK-related …)
# Experiment: co-IP; in vivo co-IP: U2OS cells cotransfected with GST-ARK5 (WT or KD) and FLAG-hnRNP A1 (WT, fragments or mutants); lysate in co-IP buffer (25 mM Tris-HCl pH 7.4, 150 mM NaCl, 0.5% Triton X-100), GSH Sepharose beads overnight at 4 °C, immunoblotting
# Conditions: partners not purified
binder,measurement,value
"FLAG-tagged hnRNP A1 wild type (heterogeneous nuclear ribonucleoprotein A1) (natural protein, human, UniProt P09651-2 1-320, looked up, hnRNP A1, full length, printed length 320 aa (residues 1-320); The printed residue numbers (1-320) fit the 320-residue isoform; also called FLAG-hnRNP A1 WT; A1-WT; source: U2OS, transfected, in lysate; U2OS, transfected, purified separately) MSKSESPKEPEQLRKLFIGGLSFETTDESLRSHFEQWGTLTDCVVMRDPNTKRSRGFGFVTYATVEEVDAAMNARPHKVDGRVVEPKRAVSREDSQRPGAHLTVKKIFVGGIKEDTEEHHLRDYFEQYGKIEVIEIMTDRGSGKKRGFAFVTFDDHDSVDKIVIQKYHTVNGHNCEVRKALSKQEMASASSSQRGRSGSGNFGGGRGGGFGGNDNFGRGGNFSGRGGFGGSRGGGGYGGSGDGYNGFGNDGSNFGGGGSYNDFGNYNNQSSNFGPMKGGNFGGRSSGPYGGGGQYFAKPRNQGGYGGSSSSSSYGSGRRF",binding result,binds
